One may read the Kd as a measure of binding affinity in units of concentration.

These results are taken from publication PMC5031973.

In the test the target is recombinant human β-actin (wild type) (human) (UniProt P60709). The test is described as follows: ITC; VP-ITC, 25 °C, G-buffer (5 mM Tris-HCl pH 7.8, 0.1 mM CaCl2, 0.2 mM DTT, 0.2 mM ATP, 0.01% NaN3); 29 injections of 10 μl Tβ4 (100 μM) into actin (10 μM) in the cell.

Turning to “thymosin β4 (from UniProt P62328 1-44) (peptide)”, the Kd was found to be 500 nM.
